Numbered stars: 1 amine (or outer) side, 2 acyl side, 3 side chain; on linkers, the order of the positions; unused ones are H or OH. Square brackets hold non-standard residues; d marks the D form. Peptide text beside a SMILES is read from it. * marks the point of attachment. Hydrazinoacetyl = O=C(CNN[*:1])[*:2]; Isonicotinoyl = O=C(c1ccncc1)*
Columns and labels:
[1] = assay type: in vitro ADME; details: rat liver lysosomal homogenate, 37 °C, LC-MS
Protocol: Next, we examined the enzymatic stability of two peptide conjugates in rat liver lysosomal homogenate (see Supplementary Information 2 for the method description). Peptides were dissolved at 0.025 µg/µl concentration then allowed to react with the lysosomal homogenate. Degradation of the conjugates was fast. […]
1.2 Lysosomal degradation studies
Enzymatic stability of INH-Dhvar4 and INH-Penetratin conjugates were assayed in rat liver lysosomal homogenate (protein content was 16.6 µg/µl). Peptides were dissolved in 0.2 M Sodium acetate buffer (pH=5.03) at 0.025 µg/µl concentration and added to the lysosomal homogenate to reach 1 : 1 protein / peptide ratio (37 °C, 600 rpm vortex) . At different time points (5 min, 30 min, 1 h, 6 h, 24 h) the reaction was stopped by the addition of 5 µl formic acid. Sampled were then measured by LC-MS using a Thermo Scientific Q Exactive Focus Hybrid Quadrupole -Orbitrap Mass Spectrometer (Suppl. Figu re 1). For chromatography, a Wa ters Acquity UPLC BEH C18 (1.7 µ, 150 × 2.1 mm) column was used with a flow rate of 300 µL/min applying a gradient elution from 2% to […]
(1 picture or pasted object on this page, not shown here)

EBC-1 cells = assay type: cell-based, human; details: 10 µM, 3 hrs, fixed, 30 profiles
Protocol: In addition to the internalization experiments, the surface morphology of INH-peptide-treated and fixed EBC-1 cells was also studied with atomic force microscopy (AFM) ( Supplementary Information 1.3 ). High-resolution imaging of the cell surfaces was performed with a Flex-Axiom AFM system (Nanosurf, Liestal, Switzerland).The representative images and surface roughness of the native and treated cells are shown in Supplementary Figure S2 .
1.3 Membrane integrity evaluation by atomic force microscopy (AFM) […]
High resolution imaging of the surfaces were performed with a Flex-Axiom AFM system (Nanosurf, Liestal, Switzerland) operating in dynamic mode utilizing soft-tapping cantilevers (Tap150-G, BudgetSensors) with nominal force constant of 5 N/m. The recorded images were evaluated with the Gwyddion software. […]
Two cut-off frequencies were chosen with real-space wavelengths of 1 μm and 200 nm. […] Figure 2D,E,F. Scale dependent surface roughness of the cells was determined according to Antonio et al. Mean Rq values are somewhat higher in the peptide and conjugate treated cells, but […]
Supplementary Figure 2. […] The apex area of the cells was selected for imaging with a scan area of 5 μm × 5 μm (512 × 512 pixel resolution), where the cellular curvature has the smallest distortion effect on the recorded height profiles. […]
1.4. […] To quantify […]

MonoMac-6 cells = details: 50 µM

## CC(C)C[C@H](NC(=O)[C@H](CCCNC(=N)N)NC(=O)[C@H](CCCCN)NC(=O)CNNC(=O)c1ccncc1)C(=O)N[C@@H](Cc1ccccc1)C(=O)N[C@@H](CCCCN)C(=O)N[C@@H](CCCCN)C(=O)N[C@@H](CC(C)C)C(=O)N[C@@H](CC(C)C)C(=O)N[C@@H](Cc1ccccc1)C(=O)N[C@@H](CO)C(=O)N[C@@H](CC(C)C)C(=O)N[C@@H](CCCNC(=N)N)C(=O)N[C@@H](CCCCN)C(=O)N[C@@H](Cc1ccc(O)cc1)C(N)=O [INH-Dhvar4] (Isonicotinoyl-[Hydrazinoacetyl]KRLFKKLLFSLRKY-NH2)
[1]; 0.2 M sodium acetate buffer pH 5.03, 0.025 µg/µl, 1:1 protein/peptide ratio
  peaks of the intact conjugates after 30 min of incubation: almost disappeared
[1]; pH 5.03, 0.025 µg/µl
  most stable fragment (main peak after 24 h of incubation): tripeptide (KRL) covalently attached to INH
EBC-1 cells
  membrane integrity (AFM surface roughness Rq): membrane integrity maintained
MonoMac-6 cells
  viability of MonoMac-6 cells: > 80%

— paper PMC8632718, “Novel Assay Platform to Evaluate Intracellular Killing of Mycobacterium tuberculosis: In Vitro and In Vivo Validation” (Frontiers in Immunology, 2021)
